Reference: US20220119472A1 (ORIONIS BIOSCIENCES, published 2022)
Where a chain is given by its changes, count along the chain named.

T1: recombinant His6-tagged extracellular domain of human Clec4C (C-type lectin domain family 4, member C) (human, UniProt Q8WTT0 44-213)
T1 construct: Same antigen for immunisation, panning and ELISA; also called His-Clec4C(EC); pMET7-SIgK-His-Clec4C(EC)
T1 sequence: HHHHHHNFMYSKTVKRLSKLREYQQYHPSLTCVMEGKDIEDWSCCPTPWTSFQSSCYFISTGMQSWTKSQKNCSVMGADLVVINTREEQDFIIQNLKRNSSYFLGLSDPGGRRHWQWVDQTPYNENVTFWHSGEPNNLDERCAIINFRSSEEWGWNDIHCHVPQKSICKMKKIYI

B1: 2CL66 (VHH)
VHH: QVQLQESGGGLVQAGGSLRLSCAASERTFTNYAMGWFRQGPGKDRAFVAAISRSGSSTSYADSVKGRFTISRDNAENILYLQMNSLKPEDTAVYYCAAAPLVLKTTPGAYNYWGQGTQVTVSS
notes: pMECS VHH-HA-His6; TG1 periplasmic extract
B2: 2CL7 (VHH)
VHH: QVQLQESGGGLVQAGDSLRLSCAPSGFTFDGYAIGWFRQAPGKEREKVACINKSDGLTYYEDSVKGRFTISSDTAKNTIHLQMNSLKPDDTAVYYCAAAWECDYAPADFGSWGQGTQVTVSS
notes: as for B1
B3: 2CL18 (VHH)
VHH: B2 VHH with D16G
notes: as for B1
B4: 2CL89 (VHH)
VHH: QVQLQESGGGTVQPGESLRLSCEVSTDTFSSLAMAWFRQATAKDREFVAAISWSGDSTVYGDSVKGRFTMTRDHPKKMVYLQMDNLKPEDTAVYYCAGDLDGRTWHGDDLEYDYWGQGTQVTVSS
notes: as for B1
B5: 2CL16 (VHH)
VHH: QVQLQESGGGLVQPGGSLRLSCAASGDTFSNYAMGWFRQAPGKAREFVAAISRSAGSTYHVDSVKGRFTISRDNAMNTVYLQMNSLQPEDTAHYYCAARLTFNLIDYYTAETRYTYWGQGTQVTVSS
notes: as for B1
B6: 2CL57 (VHH)
VHH: QVQLQESGGGLVQAGGSLKLSCAASGRTFSSYAMGWFRQAPGKERDFVAVISWRNNTYYADSVKGRFTISRDNAKNTVHLQMNSLKSEDTAVYYCAAAGLGAVVAGMSDYDYWGQGTQVTVSS
notes: as for B1
B7: 2CL40 (VHH)
VHH: QVQLQESGGGLVQTGGSLRVSCAASGRSISNYNMGWFRQPPGKEREIVGSIRWDGDSTYYADSVKGRFTISRDNTKNTVYLQMNSLKSEDTADYYCAATVSSFDESKNPRWYPYWGQGTQVTVSS
notes: as for B1
B8: 2CL91 (VHH)
VHH: QVQLQESGGGLVQAGDSLRLSCTASERTFSNYAMGWFRLAPGKERKFVAAISTSGGTTDYVDSVKGRFTISRDNAKNTVYLQMNSLKPEDTAVYYCAARLDFSSTDLYTTAPRYPYWGQGTQVTVSS
notes: as for B1
B9: 2CL34 (VHH)
VHH: QVQLQESGGGLVQAGGSLRLSCAASGRTFTNYAMGWFRQAPGKEREFVATISRSGSMPYYADSVKGRFTISRDNAKNMVYLQMNSLKPEDTAVYYCAANVLVTTTRLDQYDSWGQGTQVTVSS
notes: as for B1
B10: 1CL88 (VHH)
VHH: QVQLQESGGGLVQAGGSLRLSCAASGRIFSNSAMGWFRQVLGKEREFVAAISENSSILYYTASVKGRFTISRDNDKNTVYLQMTSLKAEDTAVYYCAGYGSTTIRTTTRPTKWGQGTQVTVSS
notes: as for B1
B11: 2CL65 (VHH)
VHH: QVQLQESGGGLVQPGGSLRLSCAASGRIFSINAMGWYRQAPGKQRELVAVISRSGISNYVDSVKGRFTISRDNAKNTVYLQMNSLNPEDTADYYCNADVLLTFNKREDSWGQGTQVTVSS
notes: as for B1
B12: 2CL56 (VHH)
VHH: QVQLQESGGGSVQAGDSLTLSCIASGRTFSSLAMGWFRQAPGKEREFVAAINWSGDSTYYSDSMKGRLTMSRDNAKNTVFLQMNSLEPEDTAVYVCAADASGYGSAWPDRYDYWGQGTQVTVSS
notes: as for B1
B13: 2CL59 (VHH)
VHH: QVQLQESGGGLVQPGDSLTLSCADSGRTFSNYAMGWFHQAPGKEREFVAAISTSGGSTAYADSVKGRFTISRDNAKNTVYLQMNNLKPEDTAVYYCAARLSFSGSSYYQGPLQYPYWGQGTQVTVSS
notes: as for B1
B14: 2CL26 (VHH)
VHH: QVQLQESGGGWVQPGDSLRLSCAASGFTFSDYAVGWFRQAPGKEREFVARITRLGNGPYYSASVKGRFTISRDNARDMAYLKMDALTPEDTATYYCAAGRTLASTHDTKTSPQTYDYWGLGTQVTVSS
notes: as for B1
B15: 2CL55 (VHH)
VHH: B14 VHH with F27S, L120Q
notes: as for B1
B16: 2CL21 (VHH)
VHH: QVQLQESGGGLVQAGGSLRLSCAASGRTFTGYAMGWFRQVPGLEREFVARISRSGNSTGYADSVKGRFTVSRDNAKSTMYLQMNSLKTEDTAVYYCAATTSWLPGHNANVYDYWGQGTQVTVSS
notes: as for B1
B17: 2CL71 (VHH)
VHH: QVQLQESGGGLVQAGGSLRLSCAASGLTFGRYAMGWFRQVPGLEREFIARISRSGDNTGYADSVKGRFTVSRDSAKSTVYLQMNSLKTEDTAVYYCAAGTSWVPGHNANAYDYWGQGTQVTVSS
notes: as for B1
B18: 2CL30 (VHH)
VHH: B16 VHH with L11S, T30S, G31D, N56D, S77N, M79V
notes: as for B1
B19: 2CL81 (VHH)
VHH: QVQLQESGGGLVQAGDSLKLSCAASGRTFSTYAMGWFRQAPGKERDVVAAIATNGGTTYYVDSVKGRFTISRDNAQNRVYLQMNSLKPEDTAIYYCAARLSFGSGYYTNKLNYAYWGQGTQVTVSS
notes: as for B1
B20: 2CL46 (VHH)
VHH: QVQLQESGGGLVQAGGSLRLSCAVSGRTFSSYAMGWFRQARGKEREFVAAVEWSSGSTFYTDSVKGRFAISRDIAKNTVYLQMNSLKPEDTAVYYCAGDHTGKLVFSKTSDYWGQGTQVTVSS
notes: as for B1
B21: 1CL56 (VHH)
VHH: QVQLQESGGGLVQPGGSLTLSCGASGFDFSDYVMYWLRQAPGKGLQWVSSINASGVRTYYVDALKGRFTISRDNAKNTLYLQIDDLKPEDTGLYYCARVGQAPMYFGVDFWGNGTQVTVSS
notes: as for B1
B22: 1CL81 (VHH)
VHH: QVQLQESGGGLVQAGNSLKLSCAASGRNLAYYVMGWFRQAPGREREPVATLTRGGDDTYCADSVKGRFTISSDNAKNTVYLQMNNLKPEDTAIYTCAARLAVLSSNTYCSGLWDYWGQGTQVTVSS
notes: as for B1
B23: 2CL15 (VHH)
VHH: QVQLQESGGGLVQPGGSVRLSCAASVFTLNNFIMSWVRQAPGKGLERVSDINMVGITDYSDPVKGRFTISRDNKQNTVYLQGNTLKPEDTAVYFCAAGRPIGLYYPSPRIRDYNDWGQGTQVTVSS
notes: as for B1
B24: 2CL29 (VHH)
VHH: QVQLQESGGGLVQPGDSLRLSCTASERTFTNYAMAWFRQAPGKERDVLATISRSGSSTFYAESVKGRFTISRDNTKNTVYLQMNSLEPEDTAVYYCAARPLVPSEDPDNYNYWGQGTQVTVSS
notes: as for B1
B25: 1CL47 (VHH)
VHH: QVQLQESGGGLVQAGGSRRLSCAASGRTFINYAMGWFRQAPGKEREFVAAISTSGSNTYLADSLKARFTISRDNAKNTVYLQIRSLNPEDTAVYYCAARLSFDDSAYYTSTLRYAYWGQGTQVTVSS
notes: as for B1
B26: 2CL84 (VHH)
VHH: QVQLQESGGGSVQAGGSLRLSCAASGRTFSDYAMGWFRQAPGKEREFVATISKSGSSTDYADSAKGRFTISRDNAKKTVYLQINSLKTEDTAVYYCAARLSFDNTAFYTSAIRYSDWGQGTQVTVSS
notes: as for B1
B27: 2CL92 (VHH)
VHH: B26 VHH with G16D, D31G, K53T, D59Y, A64V, T78S, T91A, D116Y
notes: as for B1

biological target: T1, recombinant His6-tagged extracellular …; assay: ELISA, TG1 periplasmic extract on coated antigen
Description: (§1) In total, 190 colonies from rounds 1 and 2 were randomly selected and analyzed by ELISA for the presence of antigen-specific VHH in their periplasmic extracts (ELISA using crude periplasmic extracts from TG1 cultures including soluble VHH). The antigen used for ELISA screening was the same as the one used for immunization, using uncoated blocked wells as negative control.

ELISA coated | Binder
2.04 | B1
0.664 | B2
0.491 | B3
1.31 | B4
2.03 | B5
0.922 | B6
3.11 | B7
4 | B8
2.8 | B9
4 | B10
1.72 | B11
0.999 | B12
3.76 | B13
4 | B14
1.7 | B15
3.89 | B16
4 | B17
3.79 | B18
3.69 | B19
3.3 | B20
3.89 | B21
1.12 | B22
3.9 | B23
2.24 | B24
4 | B25
3.86 | B26
3.89 | B27

biological target: T1, recombinant His6-tagged extracellular …; assay: ELISA, antigen-coated vs uncoated blocked wells
Description: as §1

ELISA ratio coated/uncoated | Binder
18.6 | B1
6.57 | B2
4.74 | B3
10.7 | B4
14.1 | B5
4.38 | B6
13.3 | B7
5.56 | B8
3.83 | B9
3.42 | B10
9.33 | B11
4.72 | B12
3.98 | B13
21.4 | B14
15 | B15
4.23 | B16
5.33 | B17
8.28 | B18
8.32 | B19
4.82 | B20
4.82 | B21
4.72 | B22
12.8 | B23
6.84 | B24
9.79 | B25
18.2 | B26
11.4 | B27
